{
  "source": "paper PMC5800599",
  "binders": {"B1": {"name": "mouse Fc γ receptor IV (receptor)", "chain": "QAGLQKAVVNLDPKWVRVLEEDSVTLRCQGTFSPEDNSIKWFHNESLIPHQDANYVIQSARVKDSGMYRCQTALSTISDPVQLEVHMGWLLLQTTKWLFQEGDPIHLRCHSWQNRPVRKVTYLQNGKGKKYFHENSELLIPKATHNDSGSYFCRGLIGHNNKSSASFRISLGD"}},
  "assay_in_all_cases": "SPR; Fc immobilised on a CM5 chip by amine coupling (400-1000 RU), mFcγRIV flowed over; Biacore T100; 25°C; 20 mM MOPS, 100 mM sodium chloride, 0.05% P20, 1 μM bovine serum albumin; mean of at least two independent experiments",
  "key": {"[1]": {"target": "mouse IgG2b Fc I300L/K326R/D327A, complex-type N-glycan (mouse)"}, "[2]": {"target": "mouse IgG2c Fc (residues 224-447), complex-type N-glycan (mouse)"}, "[3]": {"target": "mouse IgG2b Fc, truncated (1)GlcNAc N-glycan (mouse)"}, "[4]": {"target": "mouse IgG2c Fc L300I, complex-type N-glycan (mouse)"}, "[5]": {"target": "mouse IgG2b Fc, complex-type N-glycan (mouse)"}, "[6]": {"target": "mouse IgG2c Fc L300I/R326K/A327D, complex-type N-glycan (mouse)"}, "[7]": {"target": "mouse IgG2c Fc L300I, truncated (1)GlcNAc N-glycan (mouse)"}, "[8]": {"target": "mouse IgG2c Fc (residues 224-447), truncated (1)GlcNAc N-glycan (mouse)"}, "[9]": {"target": "mouse IgG2c Fc L300I/R326K/A327D, truncated (1)GlcNAc N-glycan (mouse)"}, "[10]": {"target": "mouse IgG2b Fc I300L, truncated (1)GlcNAc N-glycan (mouse)"}, "[11]": {"target": "mouse IgG2b Fc I300L/K326R/D327A, truncated (1)GlcNAc N-glycan (mouse)"}, "[12]": {"target": "mouse IgG2b Fc I300L, complex-type N-glycan (mouse)"}},
  "data": [
    {"binder": "B1", "values": [
      {"measurement": "Kd", "setting": "[1]", "value": 0.008, "unit": "µM"},
      {"measurement": "Kd", "setting": "[2]", "value": 0.012, "unit": "µM"},
      {"measurement": "Kd", "setting": "[3]", "value": 2.8, "unit": "µM"},
      {"measurement": "Kd", "setting": "[4]", "value": 0.009, "unit": "µM"},
      {"measurement": "Kd", "setting": "[5]", "value": 0.018, "unit": "µM"},
      {"measurement": "Kd", "setting": "[6]", "value": 0.009, "unit": "µM"},
      {"measurement": "Kd", "setting": "[7]", "value": 1, "unit": "µM"},
      {"measurement": "Kd", "setting": "[8]", "value": 0.6, "unit": "µM"},
      {"measurement": "Kd", "setting": "[9]", "value": 1.1, "unit": "µM"},
      {"measurement": "Kd", "setting": "[10]", "value": 1.8, "unit": "µM"},
      {"measurement": "Kd", "setting": "[11]", "value": 1.3, "unit": "µM"},
      {"measurement": "Kd", "setting": "[12]", "value": 0.015, "unit": "µM"}
    ]}
  ]
}
